The values below come from patent US20150044250A1 (INTERVET, published 2015).

Series [1] deals with the molecule itself. The experiment in a line: SEC-UV (self-association).
Series [2] deals with the molecule itself. The experiment in a line: SEC-MALS (self-association).

B1: 3mCDTa1 (CDTa minus the signal peptide with R302A, E385A and E387D) (enzyme)
chain: MVCNTTYKAPIERPEDFLKDKEKAKEWERKEAERIEQKLERSEKEALESYKKDSVEISKYSQTRNYFYDYQIEANSREKEYKELRNAISKNKIDKPMYVYYFESPEKFAFNKVIRTENQNEISLEKFNEFKETIQNKLFKQDGFKDISLYEPGKGDEKPTPLLMHLKLPRNTGMLPYTNTNNVSTLIEQGYSIKIDKIVRIVIDGKHYIKAEASVVSSLDFKDDVSKGDSWGKANYNDWSNKLTPNELADVNDYMRGGYTAINNYLISNGPVNNPNPELDSKITNIENALKREPIPTNLTVYARSGPQEFGLTLTSPEYDFNKLENIDAFKSKWEGQALSYPNFISTSIGSVNMSAFAKRKIVLRITIPKGSPGAYLSAIPGYAGAYDVLLNHGSKFKINKIDSYKDGTITKLIVDATLIP
For B1, in series [1], the binding result is on record as “binds”.

B2: 4mCDTa8 (CDTa minus the signal peptide with S345F, E385Q, E387Q and C2A) (enzyme)
chain: MVANTTYKAPIERPEDFLKDKEKAKEWERKEAERIEQKLERSEKEALESYKKDSVEISKYSQTRNYFYDYQIEANSREKEYKELRNAISKNKIDKPMYVYYFESPEKFAFNKVIRTENQNEISLEKFNEFKETIQNKLFKQDGFKDISLYEPGKGDEKPTPLLMHLKLPRNTGMLPYTNTNNVSTLIEQGYSIKIDKIVRIVIDGKHYIKAEASVVSSLDFKDDVSKGDSWGKANYNDWSNKLTPNELADVNDYMRGGYTAINNYLISNGPVNNPNPELDSKITNIENALKREPIPTNLTVYRRSGPQEFGLTLTSPEYDFNKLENIDAFKSKWEGQALSYPNFIFTSIGSVNMSAFAKRKIVLRITIPKGSPGAYLSAIPGYAGQYQVLLNHGSKFKINKIDSYKDGTITKLIVDATLIP
Take B2: the binding result in series [2] is on record as “no binding”.
